Laboratory results taken from paper PMC8882007, “Syndapin-2 mediated transcytosis of amyloid-β across the blood–brain barrier” (Brain Communications, 2022).

Assays:
LRP1/Rab5 = molecular target: T1, LRP1/Rab5 (Mus musculus, UniProt Q91ZX7); assay: Proximity ligation assay LRP1/Rab5 in BECs treated with Aβ assemblies; type: cell-based; details: Aβ assemblies at 100 nM for 15 min (Fig. 6B2)
T1 construct: endogenous in cells; host or cells: bEnd3 (ATCC CRL-2299)
Description: (§1) Polarized bEnd3 were washed twice with PBS, fixed in 4% (w/v) PFA in PBS for 15 min and permeabilized with 0.1% (w/v) Triton X-100 in PBS for 10 min. PLA was carried out by using Duolink probes and detection reagents according to the supplier’s instructions. Briefly, monolayers were incubated with Duolink blocking solution for 1 h at 37°C and then incubated with the two antibodies targeting each protein of interest overnight at 4°C. Subsequently, cells were incubated with Duolink PLA probes (anti-rabbit and anti-mouse) for 1 h at 37°C, washed and incubated with Duolink ligase and polymerase enzymes for 30 and 100 min, respectively. As a negative control, PLA protocol was followed with the exception of the addition of the primary antibodies to determine the specificity of the PLA probes. Nuclei were counterstained by incubation with DAPI for 10 min. Membranes were mounted in glass coverslips using Vectashield Mounting Media. Images were acquired using a Leica TCS SP8 confocal microscope, via sequential scan to reduce fluorophore bleed-through, with a 63× oil immersion objective. z-stacks (10–20 stacks per sample) were collected (20 optical sections) and fluorescence intensity of the PLA signal was quantified using ImageJ. The abundance of PLA signal was normalized by the number of nuclei in each z-stack image. List of antibodies in Supplementary material.
Cell metabolic activity of BECs was assessed by using the RealTime-Glo™ MT Cell Viability Assay. Cells were seeded in 96-well plates at a density of 10 000 cells per well and incubated with Aβ assemblies at concentrations ranging 0.001–1 µM for 1 and 24 h. RealTime-Glo™ MT Assay was carried out according to the supplier’s instructions. […] To evaluate the effect of Aβ assemblies in the expression of LRP1, cells were treated for 2 h with Aβ at 10 µM and then, cells were collected and analysed by Western blotting, as described above.

LRP1 = molecular target: T2, LRP1 (Mus musculus, UniProt Q91ZX7); assay: LRP1 expression in BECs treated with Aβ assemblies (Western blot); type: cell-based; details: 100 nM for 2 h, normalised to GAPDH and untreated cells, n = 3
T2 construct: endogenous in cells; host or cells: bEnd3 (ATCC CRL-2299)
Description: Polarized bEnd3 were washed twice with PBS and RIPA buffer containing protease inhibitors (1:50) was added directly to the transwell membranes and left on ice for 1 h. Cells were collected, centrifuged and the supernatant was collected for Western blot analysis. WT, KO and APP-PS1 mice were anaesthetized, decapitated and the brains were carefully collected from the skull. Brains were homogenized in a 4-fold excess volume of ice-cold buffer solution: 10 mM HEPES, 141 mM NaCl, 4 mM KCl, 2.8 mM CaCl2, 1 mM MgSO4, 1 mM NaH2PO4 and 10 mM glucose (pH 7.4) in a glass homogenizer (10–15 strokes). Microvessels and capillary-depleted fractions were prepared from WT, KO and APP-PS1 mice brains, as previously described.[28] Homogenate was suspended in an equal volume of 26% (w/v) dextran (64–76 kDa), mixed and centrifuged at 15 800 g for 10 min at 4°C. Pellet containing the brain microvessels was carefully separated from the supernatant containing capillary-depleted brain (parenchyma). Both fractions, microvessels and parenchyma, were washed twice in ice-cold buffered solution by centrifugation at 15 800 g for 10 min. Brain microvessels and parenchyma fractions were resuspended in RIPA lysis buffer containing protease inhibitors, centrifuged for 20 min, and the supernatant used for Western blot analysis. Protein levels in the lysates were determined using a BCA Protein Assay Kit. Lysates were mixed with Laemmli sample buffer, and proteins (25 µg) were separated on 10% SDS polyacrylamide gels and transferred to polyvinylidene difluoride (PVDF) membranes. All membranes were blocked with 5% (w/v) non-fat milk in Tris-buffered saline (TBS) containing 0.1% (w/v) Tween-20 (TBS-T) for 1 h and then incubated at 4°C with the primary antibody overnight. After washing with TBS-T three times for 5 min, membranes were incubated with the corresponding secondary antibody for 1 h at room temperature, washed with TBS-T and imaged using an Odyssey CLx (LI-COR Biosciences). […]
Cell metabolic activity of BECs was assessed by using the RealTime-Glo™ MT Cell Viability Assay. […]

[1] = Transmission electron microscopy of Aβ assemblies; type: physicochemical; details: negative staining, ∼0.5 mg ml^−1 dispersion
Description: Peptide films were then resuspended in dimethyl sulfoxide (DMSO) to 5 mM, bath sonicated for 10 min and vortexed for 30 s. […] Immediately before use, the oligomeric solutions were centrifuged at 14 000 g for 10 min at 4°C (to remove any fibrils that might be present), and the supernatant was diluted to the final experimental concentration. […] TEM imaging was performed using a JOEL JEM-2200FS microscope equipped with a field emission gun at 200 kV, and an in-column Omega filter. TEM microscope was used in energy-filtered mode with the slit inserted to increase image contrast by collecting only elastically scattered electrons. Digital Micrograph™ software (version 3.20) was used for image acquisition and processing. […] For sample preparation, 400 mesh copper grids were glow-discharged for 40 s to render them hydrophilic. […] The grid was blotted with filter paper and immersed in Uranyless staining solution for 40 s for negative staining. The grid was blotted again and dried under vacuum for 1 min.

LRP1/syndapin-2 = molecular target: T3, LRP1/syndapin-2 (Mus musculus, UniProt Q91ZX7); assay: Proximity ligation assay LRP1/syndapin-2 in BECs treated with Aβ; type: cell-based; details: Aβ assemblies at 100 nM for 15 min (Fig. 6B1)
T3 construct: endogenous in cells; host or cells: bEnd3 (ATCC CRL-2299), polarized

syndapin-2 = assay: Proximity ligation assay Aβ/syndapin-2 in BECs treated with Aβ assemblies; type: cell-based, mouse; details: Aβ assemblies at 100 nM for 15 min (Fig. 6C1)
Description: as §1, with “Nuclei were counterstained by incubation with DAPI for 10 min. Membranes were mounted in glass coverslips using Vectashield Mounting Media.” left out, “The abundance of PLA signal was normalized by the number of nuclei in each z-stack image. List of antibodies in Supplementary material.” left out
Cell metabolic activity of BECs was assessed by using the RealTime-Glo™ MT Cell Viability Assay. […] To evaluate the effect of Aβ assemblies in the expression of LRP1, cells were treated for 2 h with Aβ at 10 µM and then, cells were collected and analysed by Western blotting, as described above.

[2] = Thioflavin T (ThT) fluorescence assay of Aβ assemblies; type: physicochemical; details: Aβ preparation 10 µM in PBS with ThT 50 µM, 37°C, 450/485 nm; n = 3
Description: Aβ assemblies were prepared according to previously described protocols.[48],[49] Briefly, Aβ (1–40) peptide was dissolved in hexafluoro-2-propanol at 1 mM, vortexed and bath sonicated to obtain a homogenous solution, and aliquoted to microcentrifuge tubes. HIPF was removed by overnight evaporation and, once all solvent was removed, Aβ (1–40) films were stored at −80°C until further processed. Peptide films were then resuspended in dimethyl sulfoxide (DMSO) to 5 mM, bath sonicated for 10 min and vortexed for 30 s. […] Immediately before use, the oligomeric solutions were centrifuged at 14 000 g for 10 min at 4°C (to remove any fibrils that might be present), and the supernatant was diluted to the final experimental concentration. […] Monomeric Aβ was obtained by dissolving the peptide directly in DMSO at 1 mM. […] Aβ assemblies were characterized by measuring ThT fluorescence and transmission electron microscopy (TEM). […] Briefly, each Aβ preparation (20 µl, 10 µM) was incubated with ThT solution (80 µl, 50 µM) at 37°C and then the fluorescence of ThT was measured at 450/485 nm in a 96-well plate using a Spark Multimode microplate reader (Tecan). […] Images were recorded using a direct detection camera K2 IS from Gatan working in counted mode to allow for the sensitive Aβ structures to be imaged at low electron doses without beam damage. […]

T2 sequence (Q91ZX7 20-4545): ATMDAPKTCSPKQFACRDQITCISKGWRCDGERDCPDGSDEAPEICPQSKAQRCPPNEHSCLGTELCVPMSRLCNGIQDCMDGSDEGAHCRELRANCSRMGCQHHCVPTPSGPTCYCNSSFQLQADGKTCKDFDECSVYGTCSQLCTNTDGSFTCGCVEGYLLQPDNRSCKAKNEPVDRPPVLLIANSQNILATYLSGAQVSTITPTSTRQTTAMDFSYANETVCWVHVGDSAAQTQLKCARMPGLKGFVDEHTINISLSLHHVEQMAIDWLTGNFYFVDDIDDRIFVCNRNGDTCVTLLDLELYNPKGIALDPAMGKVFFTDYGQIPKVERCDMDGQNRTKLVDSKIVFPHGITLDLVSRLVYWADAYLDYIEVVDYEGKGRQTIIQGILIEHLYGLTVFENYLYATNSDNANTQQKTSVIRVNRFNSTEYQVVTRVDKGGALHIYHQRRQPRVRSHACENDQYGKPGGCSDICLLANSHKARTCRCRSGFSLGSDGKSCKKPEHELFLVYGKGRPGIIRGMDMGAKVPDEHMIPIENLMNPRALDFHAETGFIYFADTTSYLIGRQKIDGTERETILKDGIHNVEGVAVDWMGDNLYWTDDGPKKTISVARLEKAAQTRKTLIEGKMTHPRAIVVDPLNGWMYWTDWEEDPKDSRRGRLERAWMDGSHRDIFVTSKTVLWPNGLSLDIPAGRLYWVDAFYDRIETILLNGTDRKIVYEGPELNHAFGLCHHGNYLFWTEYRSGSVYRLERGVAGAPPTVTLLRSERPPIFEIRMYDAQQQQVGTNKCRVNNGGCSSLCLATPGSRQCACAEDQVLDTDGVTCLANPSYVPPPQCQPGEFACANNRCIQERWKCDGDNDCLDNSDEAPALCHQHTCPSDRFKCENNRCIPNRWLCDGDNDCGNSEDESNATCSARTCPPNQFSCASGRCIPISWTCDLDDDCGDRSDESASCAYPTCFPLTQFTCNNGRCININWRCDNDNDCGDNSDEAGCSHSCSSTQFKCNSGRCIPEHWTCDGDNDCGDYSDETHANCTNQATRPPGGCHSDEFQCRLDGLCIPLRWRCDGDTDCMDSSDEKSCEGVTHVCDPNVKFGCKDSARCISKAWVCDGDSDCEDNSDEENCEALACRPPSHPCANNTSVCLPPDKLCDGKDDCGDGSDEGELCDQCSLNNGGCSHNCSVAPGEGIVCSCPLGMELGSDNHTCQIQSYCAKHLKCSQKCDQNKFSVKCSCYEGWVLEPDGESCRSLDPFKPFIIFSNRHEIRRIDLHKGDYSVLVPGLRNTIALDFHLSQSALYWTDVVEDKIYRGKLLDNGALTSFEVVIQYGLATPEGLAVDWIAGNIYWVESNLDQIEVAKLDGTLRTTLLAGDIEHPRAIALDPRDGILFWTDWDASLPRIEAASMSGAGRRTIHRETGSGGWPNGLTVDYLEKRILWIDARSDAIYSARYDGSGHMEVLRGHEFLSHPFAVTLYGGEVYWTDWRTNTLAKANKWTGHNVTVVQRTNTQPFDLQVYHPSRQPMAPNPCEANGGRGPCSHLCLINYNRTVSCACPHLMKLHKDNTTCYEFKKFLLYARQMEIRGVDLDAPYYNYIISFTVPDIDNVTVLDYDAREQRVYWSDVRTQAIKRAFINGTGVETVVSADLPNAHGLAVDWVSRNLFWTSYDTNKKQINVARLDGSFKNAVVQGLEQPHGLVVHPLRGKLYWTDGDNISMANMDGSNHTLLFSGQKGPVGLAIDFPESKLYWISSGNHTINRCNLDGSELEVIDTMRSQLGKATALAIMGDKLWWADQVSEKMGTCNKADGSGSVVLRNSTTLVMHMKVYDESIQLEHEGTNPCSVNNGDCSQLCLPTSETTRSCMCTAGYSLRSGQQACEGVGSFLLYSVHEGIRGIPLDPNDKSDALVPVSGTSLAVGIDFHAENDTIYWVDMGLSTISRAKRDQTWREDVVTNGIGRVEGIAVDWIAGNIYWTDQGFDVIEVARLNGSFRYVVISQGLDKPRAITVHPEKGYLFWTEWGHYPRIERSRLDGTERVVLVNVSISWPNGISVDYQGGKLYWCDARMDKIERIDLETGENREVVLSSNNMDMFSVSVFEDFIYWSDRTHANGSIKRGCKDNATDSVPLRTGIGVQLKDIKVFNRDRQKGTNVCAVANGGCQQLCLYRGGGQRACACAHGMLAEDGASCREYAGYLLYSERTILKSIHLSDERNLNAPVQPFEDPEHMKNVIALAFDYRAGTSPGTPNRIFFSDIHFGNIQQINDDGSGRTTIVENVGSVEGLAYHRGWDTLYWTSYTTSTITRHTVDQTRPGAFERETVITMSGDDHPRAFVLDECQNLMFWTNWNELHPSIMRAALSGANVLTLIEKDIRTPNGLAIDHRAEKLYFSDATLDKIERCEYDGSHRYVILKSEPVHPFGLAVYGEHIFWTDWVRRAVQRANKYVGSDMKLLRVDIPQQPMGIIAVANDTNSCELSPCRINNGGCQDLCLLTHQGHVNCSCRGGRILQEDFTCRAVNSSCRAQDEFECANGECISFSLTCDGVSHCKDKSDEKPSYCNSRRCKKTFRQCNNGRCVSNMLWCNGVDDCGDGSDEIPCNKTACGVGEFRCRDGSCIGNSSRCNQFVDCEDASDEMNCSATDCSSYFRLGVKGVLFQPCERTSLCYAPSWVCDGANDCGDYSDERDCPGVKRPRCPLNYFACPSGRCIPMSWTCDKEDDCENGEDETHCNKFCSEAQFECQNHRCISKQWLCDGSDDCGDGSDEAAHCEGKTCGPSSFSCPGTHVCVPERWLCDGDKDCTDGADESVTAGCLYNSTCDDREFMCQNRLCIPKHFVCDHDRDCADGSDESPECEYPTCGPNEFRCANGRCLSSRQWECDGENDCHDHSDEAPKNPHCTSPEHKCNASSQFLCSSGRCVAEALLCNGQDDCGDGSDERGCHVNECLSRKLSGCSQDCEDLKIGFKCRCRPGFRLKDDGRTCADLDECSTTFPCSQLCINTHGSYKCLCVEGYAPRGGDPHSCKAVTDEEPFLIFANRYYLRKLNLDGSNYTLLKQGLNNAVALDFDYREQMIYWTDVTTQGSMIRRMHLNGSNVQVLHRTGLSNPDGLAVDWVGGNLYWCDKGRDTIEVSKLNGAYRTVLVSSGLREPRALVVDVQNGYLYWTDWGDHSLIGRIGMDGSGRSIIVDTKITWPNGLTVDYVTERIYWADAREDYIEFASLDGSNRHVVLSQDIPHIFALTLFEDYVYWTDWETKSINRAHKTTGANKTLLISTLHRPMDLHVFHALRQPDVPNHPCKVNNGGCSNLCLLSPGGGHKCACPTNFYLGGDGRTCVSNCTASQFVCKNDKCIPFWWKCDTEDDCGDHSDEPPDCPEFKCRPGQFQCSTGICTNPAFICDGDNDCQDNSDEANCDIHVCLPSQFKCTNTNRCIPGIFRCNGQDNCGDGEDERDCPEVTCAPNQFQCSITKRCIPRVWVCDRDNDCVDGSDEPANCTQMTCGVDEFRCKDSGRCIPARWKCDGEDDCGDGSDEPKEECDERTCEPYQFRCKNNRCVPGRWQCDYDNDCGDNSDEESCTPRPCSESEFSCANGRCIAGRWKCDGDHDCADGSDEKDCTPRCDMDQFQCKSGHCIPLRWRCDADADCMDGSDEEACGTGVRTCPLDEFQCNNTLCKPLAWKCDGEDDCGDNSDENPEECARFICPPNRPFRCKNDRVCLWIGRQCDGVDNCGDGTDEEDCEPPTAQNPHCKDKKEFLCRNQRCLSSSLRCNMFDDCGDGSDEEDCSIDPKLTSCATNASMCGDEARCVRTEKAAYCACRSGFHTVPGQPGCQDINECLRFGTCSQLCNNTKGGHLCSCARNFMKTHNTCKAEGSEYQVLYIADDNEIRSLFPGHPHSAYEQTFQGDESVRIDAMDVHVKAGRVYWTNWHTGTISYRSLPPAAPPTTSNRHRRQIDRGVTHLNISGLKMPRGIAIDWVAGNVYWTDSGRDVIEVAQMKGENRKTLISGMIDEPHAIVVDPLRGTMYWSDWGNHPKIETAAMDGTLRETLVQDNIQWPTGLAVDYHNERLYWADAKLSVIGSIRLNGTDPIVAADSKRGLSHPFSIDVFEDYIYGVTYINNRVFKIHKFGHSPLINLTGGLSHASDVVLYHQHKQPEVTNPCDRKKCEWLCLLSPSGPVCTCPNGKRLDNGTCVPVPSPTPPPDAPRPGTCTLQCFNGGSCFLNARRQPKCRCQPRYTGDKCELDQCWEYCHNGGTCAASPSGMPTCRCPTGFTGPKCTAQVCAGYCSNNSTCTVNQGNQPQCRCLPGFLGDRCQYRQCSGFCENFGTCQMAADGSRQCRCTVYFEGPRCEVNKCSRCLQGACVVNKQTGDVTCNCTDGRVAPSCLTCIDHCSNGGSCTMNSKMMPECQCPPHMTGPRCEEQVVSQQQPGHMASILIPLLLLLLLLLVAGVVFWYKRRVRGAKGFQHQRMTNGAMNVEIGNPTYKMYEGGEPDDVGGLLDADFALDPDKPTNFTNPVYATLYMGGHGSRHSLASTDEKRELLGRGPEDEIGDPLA

| Substance | LRP1/Rab5 association (PLA) (LRP1/Rab5) | LRP1 expression (LRP1) | Morphology (TEM) [1] | LRP1/syndapin-2 interaction (PLA), comparison among assemblies (LRP1/syndapin-2) | Association of Aβ with syndapin-2 (PLA) (syndapin-2) | Reduction in the expression levels of LRP1 (LRP1) | ThT fluorescence intensity (fibril structure) [2] | Thickness of fibrils (TEM) [1] |
| --- | --- | --- | --- | --- | --- | --- | --- | --- |
| Aβ monomers: Monomeric Aβ obtained by dissolving the Aβ (1–40) peptide directly in DMSO at 1 mM | favour LRP1/Rab5 association | unaltered | small assemblies and agglomerates |  |  |  |  |  |
| Aβ oligomers: Aβ (1–40) oligomers formed in PBS at 4°C for 24 h, supernatant after centrifugation | decrease | unaltered |  | highest increase | more associated with syndapin-2 |  |  |  |
| Aβ fibrils: Aβ (1–40) fibrils prepared in cold 10 mM HCl, incubated at 37°C for 24 h | favour LRP1/Rab5 association |  |  |  |  | 2 fold | characteristic increase in the fluorescence intensity of ThT | ~10 nm |
